Reference: patent publication US20170233472A1 (MacroGenics, published 2017)
Substitutions are numbered along the chain they refer to. Numbers in names are those of the source.

B1: DART-2 (bispecific antibody)
chain 1: QLVLTQSPSASASLGSSVKLTCTLSSGHKTDTIDWYQQQPGKAPRYLMKLEGSGSYNKGSGVPDRFGSGSSSGADWYLTISSLQSEDEADYYCGTDYPGNYLFGGGTQLTVLGGGGSGGGGEVQLVESGGGLVQPGGSLRLSCAASGFTFSTYAMNWVRQAPGKGLEWVGRIRSKYNNYATYYADSVKGRFTISRDDSKNSLYLQMNSLKTEDTAVYYCVRHGNFGNSYVSWFAYWGQGTLVTVSSGGCGGGKVAALKEKVAALKEKVAALKEKVAALKE
chain 2: QAVVTQEPSLTVSPGGTVTLTCRSSTGAVTTSNYANWVQQKPGQAPRGLIGGTNKRAPWTPARFSGSLLGGKAALTITGAQAEDEADYYCALWYSNLWVFGGGTKLTVLGGGGSGGGGQEQLVESGGGLVQPGGSLRLSCAASGFTFSDYYMSWVRQAPGKGLEWVATIYPSSGKTYYADSVKGRFTISSDNAKNSLYLQMNSLRAEDTAVYYCARDSYADDAALFDIWGQGTTVTVSSGGCGGGEVAALEKEVAALEKEVAALEKEVAALEK
notes: ROR1×CD3 two chain diabody; VL(2): R71W; VH: parental
B2: DART-13 (bispecific antibody)
chain 1: B1 chain 1 with S70I, Y97N
chain 2: B1 chain 2
notes: ROR1×CD3 two chain diabody; VL(13): S66I/R71W/Y92N; VH: parental
B3: DART-6 (bispecific antibody)
chain 1: B1 chain 1 with S70I, W76R
chain 2: B1 chain 2
notes: ROR1×CD3 two chain diabody; VL(6): S66I; VH: parental
B4: DART-31 (bispecific antibody)
chain 1: B1 chain 1 with S70I, Y97N
chain 2: B1 chain 2 with F186L, N195D, A215T
notes: ROR1×CD3 two chain diabody; VL(13): S66I/R71W/Y92N; VH(7): F67L/N76D/A93T
B5: DART-26 (bispecific antibody)
chain 1: B1 chain 1 with Y97N
chain 2: B1 chain 2 with A215T
notes: ROR1×CD3 two chain diabody; VL(11): R71W/Y92N; VH(3): A93T
B6: DART-16 (bispecific antibody)
chain 1: B1 chain 1 with W76R
chain 2: B1 chain 2 with A215T
notes: ROR1×CD3 two chain diabody; VL: parental; VH(3): A93T
B7: DART-21 (bispecific antibody)
chain 1: B1 chain 1 with S70I, W76R
chain 2: B1 chain 2 with A215T
notes: ROR1×CD3 two chain diabody; VL(6): S66I; VH(3): A93T
B8: DART-29 (bispecific antibody)
chain 1: B1 chain 1 with Y97N
chain 2: B1 chain 2 with F186L, N195D, A215T
notes: ROR1×CD3 two chain diabody; VL(11): R71W/Y92N; VH(7): F67L/N76D/A93T
B9: DART-4 (bispecific antibody)
chain 1: B1 chain 1 with S16G, W76R
chain 2: B1 chain 2
notes: ROR1×CD3 two chain diabody; VL(4): S17G; VH: parental
B10: DART-3 (bispecific antibody)
chain 1: B1 chain 1 with K49N, W76R
chain 2: B1 chain 2
notes: ROR1×CD3 two chain diabody; VL(3): K49N; VH: parental
B11: DART-12 (bispecific antibody)
chain 1: B1 chain 1 with S70I
chain 2: B1 chain 2
notes: ROR1×CD3 two chain diabody; VL(12): S66I/R71W; VH: parental
B12: DART-11 (bispecific antibody)
chain 1: B1 chain 1 with Y97N
chain 2: B1 chain 2
notes: ROR1×CD3 two chain diabody; VL(11): R71W/Y92N; VH: parental
B13: DART-24 (bispecific antibody)
chain 1: B1 chain 1 with W76R, Y97N
chain 2: B1 chain 2 with A215T
notes: ROR1×CD3 two chain diabody; VL(10): Y92N; VH(3): A93T
B14: DART-28 (bispecific antibody)
chain 1: B1 chain 1 with S70I, Y97N
chain 2: B1 chain 2 with A215T
notes: ROR1×CD3 two chain diabody; VL(13): S66I/R71W/Y92N; VH(3): A93T
B15: DART-25 (bispecific antibody)
chain 1: B1 chain 1
chain 2: B1 chain 2 with F186L, N195D, A215T
notes: ROR1×CD3 two chain diabody
B16: DART-14 (bispecific antibody)
chain 1: B1 chain 1 with W76R
chain 2: B1 chain 2 with F186L
notes: ROR1×CD3 two chain diabody; VL: parental; VH(1): F67L
B17: DART-5 (bispecific antibody)
chain 1: B1 chain 1 with N57S, W76R
chain 2: B1 chain 2
notes: ROR1×CD3 two chain diabody; VL(5): N54S; VH: parental
B18: DART-23 (bispecific antibody)
chain 1: B1 chain 1
chain 2: B1 chain 2 with N195D
B19: DART-10 (bispecific antibody)
chain 1: B1 chain 1 with W76R, Y97N
chain 2: B1 chain 2
notes: ROR1×CD3 two chain diabody; VL(10): Y92N; VH: parental
B20: DART-27 (bispecific antibody)
chain 1: B1 chain 1 with S70I
chain 2: B1 chain 2 with A215T
notes: ROR1×CD3 two chain diabody; VL(12): S66I R71W; VH(3): A93T
B21: DART-22 (bispecific antibody)
chain 1: B1 chain 1
chain 2: B1 chain 2 with F186L
notes: ROR1×CD3 two chain diabody; VL(2): R71W; VH(1): F67L
B22: DART-17 (bispecific antibody)
chain 1: B1 chain 1 with W76R
chain 2: B1 chain 2 with N195Y
notes: ROR1×CD3 two chain diabody; VL: parental; VH(4): N76Y
B23: DART-30 (bispecific antibody)
chain 1: B1 chain 1 with S70I
chain 2: B1 chain 2 with F186L, N195D, A215T
notes: ROR1×CD3 two chain diabody; VL(12): S66I/R71W; VH(7): F67L N76D A93T
B24: DART-33 (bispecific antibody)
chain 1: QLVLTQSPSASASLGSSVKLTCTLSSGHKTDTIDWYQQQPGKAPRYLMKLEGSGSYNKGSGVPDRFSGSSSGADWYLTISSLQSEDEADYYCGTDYPGNYLFGGGTQLTVLGGGGSGGGGEVQLVESGGGLVQPGGSLRLSCAASGFTFSTYAMNWVRQAPGKGLEWVGRIRSKYNNYATYYADSVKGRFTISRDDSKNSLYLQMNSLKTEDTAVYYCVRHGNFGNSYVSWFAYWGQGTLVTVSSGGCGGGKVAALKEKVAALKEKVAALKEKVAALKE
chain 2: B1 chain 2 with V155I, V182A, F186L, N195D, A215T
notes: ROR1×CD3 two chain diabody
B25: DART-20 (bispecific antibody)
chain 1: B1 chain 1
chain 2: B1 chain 2 with A215T
notes: ROR1×CD3 two chain diabody; VL(2): R71W; VH(3): A93T

How the values were obtained:
[1] = molecular target: T1, His-tagged soluble human ROR1 (shROR1-His) (human, UniProt Q01973 30-406); experiment: SPR (Biacore), diabody captured via anti-E/K-coil, shROR1-His as analyte
T1 construct: also called ROR1 protein; immobilized ROR1; not shown: His-Tag
T1 sequence (Q01973 30-406): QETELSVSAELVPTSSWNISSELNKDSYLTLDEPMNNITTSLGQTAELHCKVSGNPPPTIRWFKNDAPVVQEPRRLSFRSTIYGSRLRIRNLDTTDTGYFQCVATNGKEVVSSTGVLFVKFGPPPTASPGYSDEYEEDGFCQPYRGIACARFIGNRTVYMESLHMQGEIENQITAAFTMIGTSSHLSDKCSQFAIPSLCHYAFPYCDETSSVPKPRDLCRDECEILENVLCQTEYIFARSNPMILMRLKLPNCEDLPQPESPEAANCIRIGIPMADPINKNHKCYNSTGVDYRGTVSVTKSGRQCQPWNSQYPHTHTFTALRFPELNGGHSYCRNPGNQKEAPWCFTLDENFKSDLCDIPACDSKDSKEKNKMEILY
Method: The binding kinetics of DART-1 to DART-6, DART-10 to DART-17, DART-20 to DART-33 was investigated using Biacore analysis in which ROR1 protein was passed over immobilized diabodies. Briefly, each diabody construct was captured on immobilized anti-E/K-coil surface and was incubated with shROR1-His at 25 and 100 nM, and the kinetics of binding were determined via Biacore analysis.

[2] = molecular target: human ROR1 expressed on the surface of cancer cells (human, UniProt Q01973 30-937); experiment: cell-based or functional assay
Chain of human ROR1 expressed on the surface of cancer cells (Q01973 30-937): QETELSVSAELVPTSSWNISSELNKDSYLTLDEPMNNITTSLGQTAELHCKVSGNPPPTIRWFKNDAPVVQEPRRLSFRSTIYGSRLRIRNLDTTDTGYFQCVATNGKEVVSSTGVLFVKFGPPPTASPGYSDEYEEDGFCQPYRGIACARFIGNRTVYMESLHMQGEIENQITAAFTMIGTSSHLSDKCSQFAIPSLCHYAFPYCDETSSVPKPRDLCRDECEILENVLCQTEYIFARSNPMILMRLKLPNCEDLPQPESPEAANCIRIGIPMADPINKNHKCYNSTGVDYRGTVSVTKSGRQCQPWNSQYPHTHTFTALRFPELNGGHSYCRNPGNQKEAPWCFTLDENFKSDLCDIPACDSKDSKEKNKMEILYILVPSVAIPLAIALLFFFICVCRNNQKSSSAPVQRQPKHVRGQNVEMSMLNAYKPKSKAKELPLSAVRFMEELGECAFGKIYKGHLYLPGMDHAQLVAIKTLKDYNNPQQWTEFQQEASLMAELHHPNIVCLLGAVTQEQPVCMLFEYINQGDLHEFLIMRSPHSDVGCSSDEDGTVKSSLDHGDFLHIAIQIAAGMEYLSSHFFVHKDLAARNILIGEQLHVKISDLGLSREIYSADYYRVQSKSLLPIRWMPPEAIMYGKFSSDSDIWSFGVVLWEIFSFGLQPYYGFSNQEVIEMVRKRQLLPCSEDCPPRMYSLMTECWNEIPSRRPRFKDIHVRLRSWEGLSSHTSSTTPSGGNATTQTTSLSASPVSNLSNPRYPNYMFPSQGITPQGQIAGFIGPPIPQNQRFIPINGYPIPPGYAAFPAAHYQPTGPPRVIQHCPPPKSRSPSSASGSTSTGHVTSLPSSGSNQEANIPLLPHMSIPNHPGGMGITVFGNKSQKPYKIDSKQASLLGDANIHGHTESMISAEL

Binder	Kd [1] [nM]	also measured
B1	1.5	fold enhancement of binding relative to DART-1 [1]: > 2 fold
B2	1.4	
B3	5.7	
B4	0.9	
B5	1.2	
B6	4.3	
B7	4.8	
B8	1.3	
B9	3.7	
B10	4	
B11	1.7	
B12	1.2	
B13	2.4	
B14	1.5	
B15	1.2	MR(%) (maximum response), redirected cell killing of HBL-2 cells (LDH release) [2]: 27%; MR(%) (maximum response), redirected cell killing of JIMT-1 cells (LDH release) [2]: 40%; MR(%) (maximum response), redirected cell killing of Jeko-1 cells (LDH release) [2]: 38.2%
B16	4.5	
B17	6	
B18		MR(%) (maximum response), redirected cell killing of HBL-2 cells (LDH release) [2]: 25.6%; MR(%) (maximum response), redirected cell killing of JIMT-1 cells (LDH release) [2]: 37.3%; MR(%) (maximum response), redirected cell killing of Jeko-1 cells (LDH release) [2]: 36.4%
B19	2.7	
B20	1.2	
B21	1.3	
B22	3.7	
B23	1.2	
B24	1.3	
B25	1.3	
